# Measured values as given in the supplement of paper PMC9112550, “Optimization of the antimicrobial peptide Bac7 by deep mutational scanning” (BMC Biology, 2022).
# Test system: Escherichia coli TOP10
# Experiment: shrunken log2 fold change of peptide-encoding DNA abundance (4.5 h post-induction vs induction); higher = less antimicrobial activity (less host growth inhibition)
# Settings: time post-induction: 4.5 h; library: site-saturation at positions 5, 18, 19, 20
# 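Further: peptides expressed intracellularly from a pBAD plasmid library in pooled LB shake-flask culture, induced with 0.3% L-arabinose, DNA abundance read by NGS, three biological replicates, DESeq2 with apeglm shrinkage.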
row,Sequence,shrunken log2 fold change
1,RRIRYRPPRLPRPRPRPTIPPRP,-0.572
2,RRIRGRPPRLPRPRPRPNGWPRP,0.477
3,RRIRPRPPRLPRPRPRPHQFPRP,-0.0896
4,RRIRSRPPRLPRPRPRPTEFPRP,0.153
5,RRIRDRPPRLPRPRPRPITSPRP,-0.00293
6,RRIRNRPPRLPRPRPRPNEIPRP,0.145
7,RRIRTRPPRLPRPRPRPIGYPRP,-0.0183
8,RRIRVRPPRLPRPRPRPWCGPRP,0.0506
9,RRIRRRPPRLPRPRPRPHRQPRP,0.0248
10,RRIRRRPPRLPRPRPRPDGLPRP,0.771
11,RRIRARPPRLPRPRPRPQAKPRP,0.0548
12,RRIRCRPPRLPRPRPRPRFPPRP,-0.0867
13,RRIRSRPPRLPRPRPRPADYPRP,-0.455
14,RRIRHRPPRLPRPRPRPSHHPRP,-0.267
15,RRIRMRPPRLPRPRPRPCWHPRP,-0.0624
16,RRIRIRPPRLPRPRPRPWPHPRP,-0.394
17,RRIRWRPPRLPRPRPRPWREPRP,-0.0969
18,RRIRSRPPRLPRPRPRPVSNPRP,-0.0276
19,RRIRVRPPRLPRPRPRPCIEPRP,-0.351
20,RRIRDRPPRLPRPRPRPHPTPRP,0.0176
21,RRIRDRPPRLPRPRPRPDACPRP,0.52
22,RRIRRRPPRLPRPRPRPCKWPRP,-0.0414
23,RRIRDRPPRLPRPRPRPQWDPRP,0.101

row,Sequence,shrunken log2 fold change
1,RRIRLRPPRLPRPRPRPICQPRP,0.0108
2,RRIRARPPRLPRPRPRPFNIPRP,-0.307
3,RRIRQRPPRLPRPRPRPEHPPRP,0.0713
4,RRIRLRPPRLPRPRPRPIKFPRP,-0.0676
5,RRIRDRPPRLPRPRPRPACDPRP,0.472
6,RRIRSRPPRLPRPRPRPQTLPRP,-0.119
7,RRIRTRPPRLPRPRPRPSYGPRP,-0.259
8,RRIRERPPRLPRPRPRPAFSPRP,0.122
9,RRIRSRPPRLPRPRPRPTCKPRP,0.107
10,RRIRQRPPRLPRPRPRPNPKPRP,-0.00731
11,RRIRSRPPRLPRPRPRPPCGPRP,0.182
12,RRIRARPPRLPRPRPRPQQRPRP,0.199
13,RRIRHRPPRLPRPRPRPRLDPRP,-0.0149
14,RRIRCRPPRLPRPRPRPLDAPRP,0.123
15,RRIRHRPPRLPRPRPRPDVMPRP,-0.374
16,RRIRCRPPRLPRPRPRPWTYPRP,-0.015
17,RRIRFRPPRLPRPRPRPLLHPRP,-0.247
18,RRIRFRPPRLPRPRPRPVDMPRP,0.00603
19,RRIRMRPPRLPRPRPRPEWAPRP,1.36
20,RRIRDRPPRLPRPRPRPCYAPRP,0.326
21,RRIRARPPRLPRPRPRPIANPRP,0.103
22,RRIRYRPPRLPRPRPRPQMIPRP,0.0722
23,RRIRGRPPRLPRPRPRPIRNPRP,-0.0262

row,Sequence,shrunken log2 fold change
1,RRIRSRPPRLPRPRPRPHIEPRP,-0.295
2,RRIRFRPPRLPRPRPRPDSCPRP,-0.011
3,RRIRMRPPRLPRPRPRPRGLPRP,0.727
4,RRIRIRPPRLPRPRPRPLEHPRP,-0.105
5,RRIRGRPPRLPRPRPRPKPQPRP,0.543
6,RRIRARPPRLPRPRPRPRAFPRP,0.398
7,RRIRGRPPRLPRPRPRPTRVPRP,0.748
8,RRIRQRPPRLPRPRPRPMMPPRP,0.0665
9,RRIRDRPPRLPRPRPRPCTRPRP,0.0736
10,RRIRLRPPRLPRPRPRPRLQPRP,0.15
11,RRIRSRPPRLPRPRPRPIEEPRP,0.0156
12,RRIRGRPPRLPRPRPRPINEPRP,0.0939
13,RRIRRRPPRLPRPRPRPHSNPRP,-0.281
14,RRIRIRPPRLPRPRPRPALVPRP,0.228
15,RRIRERPPRLPRPRPRPHNAPRP,-0.192
16,RRIRNRPPRLPRPRPRPCNTPRP,-0.442
17,RRIRQRPPRLPRPRPRPIGGPRP,-0.0328
18,RRIRQRPPRLPRPRPRPFRNPRP,0.033
19,RRIRMRPPRLPRPRPRPHVHPRP,0.0308
20,RRIRLRPPRLPRPRPRPSKKPRP,-0.0524
21,RRIRTRPPRLPRPRPRPHIAPRP,-0.348
22,RRIRCRPPRLPRPRPRPTSQPRP,0.00813
23,RRIRMRPPRLPRPRPRPCEQPRP,0.195

row,Sequence,shrunken log2 fold change
1,RRIRLRPPRLPRPRPRPAQFPRP,0.28
2,RRIRLRPPRLPRPRPRPYEQPRP,-0.104
3,RRIRIRPPRLPRPRPRPIYIPRP,-0.159
4,RRIRVRPPRLPRPRPRPMMWPRP,-0.368
5,RRIRSRPPRLPRPRPRPPTSPRP,0.0457
6,RRIRSRPPRLPRPRPRPAVKPRP,-0.177
7,RRIRARPPRLPRPRPRPDHRPRP,0.0154
8,RRIRMRPPRLPRPRPRPCPQPRP,0.0219
9,RRIRWRPPRLPRPRPRPFWLPRP,0.0108
10,RRIRMRPPRLPRPRPRPDVWPRP,1.19
11,RRIRARPPRLPRPRPRPGGSPRP,0.535
12,RRIRGRPPRLPRPRPRPQRVPRP,0.423
13,RRIRERPPRLPRPRPRPGTYPRP,-0.478
14,RRIRLRPPRLPRPRPRPPHRPRP,0.182
15,RRIRHRPPRLPRPRPRPQELPRP,-0.122
16,RRIRPRPPRLPRPRPRPECRPRP,0.56
17,RRIRHRPPRLPRPRPRPMITPRP,-0.658
18,RRIRPRPPRLPRPRPRPADPPRP,0.558
19,RRIRKRPPRLPRPRPRPYTKPRP,-0.138
20,RRIRPRPPRLPRPRPRPESNPRP,0.0165
21,RRIRERPPRLPRPRPRPMDSPRP,-0.0933
22,RRIRCRPPRLPRPRPRPNGMPRP,-0.398
